According to paper PMC9482650, “Quantitative fragmentomics allow affinity mapping of interactomes” (Nature Communications, 2022):

T1: ARHGAP21, Q5T5U3
T1 sequence (Q5T5U3 45-169, limits assumed, looked up): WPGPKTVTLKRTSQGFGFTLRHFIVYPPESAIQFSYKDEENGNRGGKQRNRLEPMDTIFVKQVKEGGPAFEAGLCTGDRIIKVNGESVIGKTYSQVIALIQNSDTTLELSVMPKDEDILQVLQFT

T2: DFNB31_2, Q9P202
T2 sequence (Q9P202 274-371, limits assumed, looked up): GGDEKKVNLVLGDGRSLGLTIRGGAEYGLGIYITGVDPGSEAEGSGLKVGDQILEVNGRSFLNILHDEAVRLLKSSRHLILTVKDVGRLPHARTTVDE

T3: GRIP1_2, Q9Y3R0
T3 sequence (Q9Y3R0 145-248, limits assumed, looked up): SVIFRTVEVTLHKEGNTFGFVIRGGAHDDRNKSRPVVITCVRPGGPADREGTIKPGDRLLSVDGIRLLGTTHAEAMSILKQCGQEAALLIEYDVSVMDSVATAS

T4: HTRA4, P83105
T4 sequence (P83105 378-476, limits assumed, looked up): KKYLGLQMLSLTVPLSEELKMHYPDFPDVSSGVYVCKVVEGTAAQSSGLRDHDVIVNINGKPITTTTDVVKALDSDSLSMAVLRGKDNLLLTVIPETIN

T5: MPP2, Q14168
T5 sequence (Q14168 180-250, limits assumed, looked up): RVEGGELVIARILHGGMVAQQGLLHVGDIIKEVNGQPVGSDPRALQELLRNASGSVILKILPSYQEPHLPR

T6: PARD3B_1, Q8TEW8
T6 sequence (Q8TEW8 196-299, limits assumed, looked up): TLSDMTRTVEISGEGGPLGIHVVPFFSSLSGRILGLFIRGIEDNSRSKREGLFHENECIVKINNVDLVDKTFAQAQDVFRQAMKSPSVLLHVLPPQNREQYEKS

T7: PDZRN3_1, Q9UPQ7
T7 sequence (Q9UPQ7 244-349, limits assumed, looked up): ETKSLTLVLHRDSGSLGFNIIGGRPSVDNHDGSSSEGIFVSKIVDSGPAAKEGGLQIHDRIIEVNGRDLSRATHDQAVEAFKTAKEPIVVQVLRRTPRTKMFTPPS

T8: SHANK1, Q9Y566
T8 sequence (Q9Y566 658-767, limits assumed, looked up): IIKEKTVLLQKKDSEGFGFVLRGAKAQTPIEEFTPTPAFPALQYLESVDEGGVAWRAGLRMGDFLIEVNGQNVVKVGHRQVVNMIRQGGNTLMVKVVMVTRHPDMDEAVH

T9: SNTB1, Q13884
T9 sequence (Q13884 107-205, limits assumed, looked up): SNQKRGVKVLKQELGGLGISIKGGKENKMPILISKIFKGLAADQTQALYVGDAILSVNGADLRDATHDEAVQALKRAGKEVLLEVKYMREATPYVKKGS

T10: TX1BP3, O14907
T10 sequence (O14907 10-122, limits assumed, looked up): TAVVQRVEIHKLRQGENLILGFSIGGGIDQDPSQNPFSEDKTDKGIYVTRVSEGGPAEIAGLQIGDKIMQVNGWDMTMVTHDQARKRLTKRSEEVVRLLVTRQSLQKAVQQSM


Tests used:
Assay in all cases: holdup assay
Parameters in all cases: key: below the threshold = too weak to quantify, mostly under pKd 3.1 to 4
Settings in all cases: plain residues with an end cap or a label only (N-terminal biotin on a linker: ado-ado)
ARHGAP21, Q5T5U3 = target: T1, ARHGAP21, Q5T5U3
DFNB31_2, Q9P202 = target: T2, DFNB31_2, Q9P202
DLG2_2, Q15700 = target: DLG2_2, Q15700
DLG5_1, Q8TDM6 = target: DLG5_1, Q8TDM6
FRMPD2_2, Q68DX3 = target: FRMPD2_2, Q68DX3
GOPC, Q9HD26 = target: GOPC, Q9HD26
GRASP, Q7Z6J2 = target: GRASP, Q7Z6J2
GRIP1_2, Q9Y3R0 = target: T3, GRIP1_2, Q9Y3R0
GRIP2_3, Q9C0E4 = target: GRIP2_3, Q9C0E4
HTRA2, O43464 = target: HTRA2, O43464
HTRA4, P83105 = target: T4, HTRA4, P83105
IL16_4, Q14005 = target: IL16_4, Q14005
Inadl_3, Q8NI35 = target: Inadl_3, Q8NI35
Inadl_4, Q8NI35 = target: Inadl_4, Q8NI35
LAP2, Q96RT1 = target: LAP2, Q96RT1
MAGI1_1, Q96QZ7 = target: MAGI1_1, Q96QZ7
MAGI2_5, Q86UL8 = target: MAGI2_5, Q86UL8
MAGI3_2, Q5TCQ9 = target: MAGI3_2, Q5TCQ9
MPP2, Q14168 = target: T5, MPP2, Q14168
NHERF2_2, Q15599 = target: NHERF2_2, Q15599
PARD3B_1, Q8TEW8 = target: T6, PARD3B_1, Q8TEW8
PARD3_3, Q8TEW0 = target: PARD3_3, Q8TEW0
PDZRN3_1, Q9UPQ7 = target: T7, PDZRN3_1, Q9UPQ7
SHANK1, Q9Y566 = target: T8, SHANK1, Q9Y566
SNTB1, Q13884 = target: T9, SNTB1, Q13884
TX1BP3, O14907 = target: T10, TX1BP3, O14907

Inadl_3, Q8NI35, sequence (Q8NI35 359-469): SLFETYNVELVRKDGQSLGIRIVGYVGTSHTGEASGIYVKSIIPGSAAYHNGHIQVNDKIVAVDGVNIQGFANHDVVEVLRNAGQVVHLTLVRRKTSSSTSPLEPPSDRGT
LAP2, Q96RT1, sequence (Q96RT1 other isoform, or with tags, fused parts or gaps): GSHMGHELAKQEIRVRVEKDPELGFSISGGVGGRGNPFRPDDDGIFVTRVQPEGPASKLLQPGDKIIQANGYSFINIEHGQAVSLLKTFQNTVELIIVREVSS
Inadl_4, Q8NI35, sequence (Q8NI35 547-651): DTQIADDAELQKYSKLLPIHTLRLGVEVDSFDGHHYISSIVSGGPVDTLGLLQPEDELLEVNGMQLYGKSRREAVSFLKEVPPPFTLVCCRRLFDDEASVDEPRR
GRIP2_3, Q9C0E4, sequence (Q9C0E4 238-339): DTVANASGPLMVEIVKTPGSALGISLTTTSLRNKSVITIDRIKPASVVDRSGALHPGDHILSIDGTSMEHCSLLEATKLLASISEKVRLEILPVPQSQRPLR
MAGI2_5, Q86UL8, sequence (Q86UL8 915-1017): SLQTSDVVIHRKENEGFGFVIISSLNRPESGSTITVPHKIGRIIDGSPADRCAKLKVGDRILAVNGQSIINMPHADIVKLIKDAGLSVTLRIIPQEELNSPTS
NHERF2_2, Q15599, sequence (Q15599 142-238): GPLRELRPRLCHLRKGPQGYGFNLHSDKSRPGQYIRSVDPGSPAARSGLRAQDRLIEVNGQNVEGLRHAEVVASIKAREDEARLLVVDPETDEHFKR
MAGI3_2, Q5TCQ9, sequence (Q5TCQ9 398-503): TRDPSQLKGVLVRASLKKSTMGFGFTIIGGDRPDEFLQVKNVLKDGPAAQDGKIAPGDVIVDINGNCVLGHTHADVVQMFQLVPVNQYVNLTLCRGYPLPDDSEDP
FRMPD2_2, Q68DX3, sequence (Q68DX3 944-1038): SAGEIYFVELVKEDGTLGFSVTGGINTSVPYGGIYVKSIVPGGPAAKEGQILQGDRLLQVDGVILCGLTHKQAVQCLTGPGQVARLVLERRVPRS
HTRA2, O43464, sequence (O43464 355-458): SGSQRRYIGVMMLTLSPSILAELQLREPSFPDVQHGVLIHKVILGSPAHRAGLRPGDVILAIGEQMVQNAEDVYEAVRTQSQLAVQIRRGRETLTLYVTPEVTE
MAGI1_1, Q96QZ7, sequence (Q96QZ7 1-106): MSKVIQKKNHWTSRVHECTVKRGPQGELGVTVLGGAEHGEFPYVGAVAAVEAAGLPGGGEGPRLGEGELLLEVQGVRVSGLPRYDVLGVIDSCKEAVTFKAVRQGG
DLG2_2, Q15700, sequence (Q15700 189-283): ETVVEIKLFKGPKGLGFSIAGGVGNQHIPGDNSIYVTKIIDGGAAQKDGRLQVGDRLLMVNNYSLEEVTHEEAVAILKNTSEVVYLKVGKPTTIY
PARD3_3, Q8TEW0, sequence (Q8TEW0 582-685): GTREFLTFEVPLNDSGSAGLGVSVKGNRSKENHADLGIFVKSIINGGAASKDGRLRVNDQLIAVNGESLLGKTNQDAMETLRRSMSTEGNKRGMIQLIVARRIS
DLG5_1, Q8TDM6, sequence (Q8TDM6 617-713): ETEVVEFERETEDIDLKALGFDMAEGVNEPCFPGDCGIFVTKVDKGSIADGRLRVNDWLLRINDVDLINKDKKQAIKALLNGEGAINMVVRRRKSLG
GRASP, Q7Z6J2, sequence (Q7Z6J2 96-193): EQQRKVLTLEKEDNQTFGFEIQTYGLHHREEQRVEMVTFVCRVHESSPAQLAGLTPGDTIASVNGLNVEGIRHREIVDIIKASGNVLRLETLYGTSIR
IL16_4, Q14005, sequence (Q14005 1229-1329): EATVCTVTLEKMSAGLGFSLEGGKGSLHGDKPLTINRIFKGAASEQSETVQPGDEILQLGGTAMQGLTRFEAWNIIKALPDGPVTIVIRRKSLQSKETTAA

Binder | pKd (ARHGAP21, Q5T5U3) | pKd (DFNB31_2, Q9P202) | pKd (DLG2_2, Q15700) | pKd (DLG5_1, Q8TDM6) | pKd (FRMPD2_2, Q68DX3) | pKd (GOPC, Q9HD26) | pKd (GRASP, Q7Z6J2) | pKd (GRIP1_2, Q9Y3R0) | pKd (GRIP2_3, Q9C0E4) | pKd (HTRA2, O43464) | pKd (HTRA4, P83105) | pKd (IL16_4, Q14005) | pKd (Inadl_3, Q8NI35) | pKd (Inadl_4, Q8NI35) | pKd (LAP2, Q96RT1) | pKd (MAGI1_1, Q96QZ7) | pKd (MAGI2_5, Q86UL8) | pKd (MAGI3_2, Q5TCQ9) | pKd (MPP2, Q14168) | pKd (NHERF2_2, Q15599) | further results
DFLSTFHIRI [CIB2, O75838] | 4.13 | below the threshold | below the threshold | below the threshold | below the threshold | below the threshold | 3.47 | below the threshold | below the threshold | 3.5 | 3.91 | below the threshold | 4.49 | below the threshold | below the threshold | below the threshold | below the threshold | 4.3 | below the threshold | below the threshold | pKd (PARD3B_1, Q8TEW8): 4.68; pKd (PARD3_3, Q8TEW0): 4.28; pKd (PDZRN3_1, Q9UPQ7): below the threshold; pKd (SHANK1, Q9Y566): below the threshold; pKd (SNTB1, Q13884): below the threshold; pKd (TX1BP3, O14907): below the threshold
TISFTQTSQF [SLC1A1, P43005] | below the threshold | below the threshold | below the threshold | below the threshold | below the threshold | below the threshold | 5.31 | below the threshold | below the threshold | below the threshold | below the threshold | below the threshold | below the threshold | below the threshold | below the threshold | below the threshold | 4.29 | below the threshold | below the threshold | 4.42 | pKd (PARD3B_1, Q8TEW8): 4.24; pKd (PARD3_3, Q8TEW0): below the threshold; pKd (PDZRN3_1, Q9UPQ7): below the threshold; pKd (SHANK1, Q9Y566): 4.61; pKd (SNTB1, Q13884): below the threshold; pKd (TX1BP3, O14907): below the threshold

The next lines start with results.

pKd (ARHGAP21, Q5T5U3) | pKd (DFNB31_2, Q9P202) | pKd (DLG2_2, Q15700) | pKd (DLG5_1, Q8TDM6) | pKd (FRMPD2_2, Q68DX3) | pKd (GOPC, Q9HD26) | pKd (GRASP, Q7Z6J2) | pKd (GRIP1_2, Q9Y3R0) | pKd (GRIP2_3, Q9C0E4) | pKd (HTRA2, O43464) | pKd (HTRA4, P83105) | pKd (IL16_4, Q14005) | pKd (Inadl_3, Q8NI35) | pKd (Inadl_4, Q8NI35) | pKd (LAP2, Q96RT1) | pKd (MAGI1_1, Q96QZ7) | pKd (MAGI2_5, Q86UL8) | pKd (MAGI3_2, Q5TCQ9) | pKd (MPP2, Q14168) | pKd (NHERF2_2, Q15599) | Binder | further results
4.12 | below the threshold | 3.89 | 3.71 | 3.74 | 3.94 | 4.22 | 3.67 | 3.61 | 3.76 | 4.29 | below the threshold | 3.62 | 3.64 | 3.73 | 3.79 | 3.67 | 4.12 | below the threshold | 3.81 | EIPAQSPTCV [FZD10, Q9ULW2] | pKd (PARD3B_1, Q8TEW8): below the threshold; pKd (PARD3_3, Q8TEW0): 3.65; pKd (PDZRN3_1, Q9UPQ7): below the threshold; pKd (SHANK1, Q9Y566): 3.62; pKd (SNTB1, Q13884): 3.75; pKd (TX1BP3, O14907): below the threshold
below the threshold | below the threshold | 4.68 | below the threshold | 4.54 | below the threshold | 3.62 | below the threshold | below the threshold | below the threshold | 3.83 | below the threshold | 4.08 | below the threshold | 3.96 | below the threshold | 5.32 | 4.84 | below the threshold | below the threshold | DPAESMESLV [PTPRG, P23470] | pKd (PARD3B_1, Q8TEW8): below the threshold; pKd (PARD3_3, Q8TEW0): 3.93; pKd (PDZRN3_1, Q9UPQ7): 3.96; pKd (SHANK1, Q9Y566): below the threshold; pKd (SNTB1, Q13884): 4.84; pKd (TX1BP3, O14907): 4.03
